The chains are these.
B1: DHFR-GRR (other)
chain: MISLIAALAVDRVIGMENAMPWNLPADLAWFKRNTLNKPVIMGRHTWESIGRPLPGRKNIILSSQPGTDDRVTWVKSVDEAIAACGDVPEIMVIGGGRVYEQFLPKAQKLYLTHIDAEVEGDTHFPDYEPDDWESVFSEFHDADAQNSHSYCFEILERRPRDSFGGGSGAGAGGGGMFGSGGGG
B2: DHFR-35 (other)
chain: MISLIAALAVDRVIGMENAMPWNLPADLAWFKRNTLNKPVIMGRHTWESIGRPLPGRKNIILSSQPGTDDRVTWVKSVDEAIAACGDVPEIMVIGGGRVYEQFLPKAQKLYLTHIDAEVEGDTHFPDYEPDDWESVFSEFHDADAQNSHSYCFEILERRPRLRYQPLLRISQNCEAAILRASQTRLNTIHHHHHH
B3: DHFR-eRR (other)
chain: MISLIAALAVDRVIGMENAMPWNLPADLAWFKRNTLNKPVIMGRHTWESIGRPLPGRKNIILSSQPGTDDRVTWVKSVDEAIAACGDVPEIMVIGGGRVYEQFLPKAQKLYLTHIDAEVEGDTHFPDYEPDDWESVFSEFHDADAQNSHSYCFEILERRPRGGGGAWLLPVSLVRRRTTLAPNTQTASPRALADS

This assay concerns the target purified S. cerevisiae proteasome (S. cerevisiae). Nature of the assay: competitive inhibition of proteasomal degradation of a fluorescent substrate; apparent Ki; DHFR-tail competitor varied, UbL-GFP-95 substrate, 40 nM purified yeast proteasome; loss of GFP fluorescence in 384-well plates; 30 °C (methods; the legend of Figure 7 says room temperature); 50 mM Tris, 5 mM MgCl2, 2.5% glycerol, 1 mM ATP, 4 mM DTT, 0.2 mg/ml BSA, 10 mM creatine phosphate, 0.1 mg/ml creatine kinase, pH 7.5; …. The conditions noted are these: both partners purified.
Regarding B1, the Ki was 130 ± 20 µM.

Regarding B2, the Ki worked out at 36 ± 6 µM.

B3: the Ki stood at 36 ± 5 µM.

The values are drawn from publication PMC4938175, “Conserved Sequence Preferences Contribute to Substrate Recognition by the Proteasome*^([image sbox.jpg])” (The Journal of Biological Chemistry, 2016).
